Experimental data published in article PMC6937562.

Target: C3d (human), P01024
Assay: SPR; homemade HJEM2 chip, 61 RU C3d amine-coupled; FH flowed (2 μM to 3.9 nM); Biacore T200, 25 °C, HBS-P pH 7.4; 1:1 steady-state model
Conditions: remark: other sources report otherwise

C3d (human), P01024, sequence (P01024 1002-1303): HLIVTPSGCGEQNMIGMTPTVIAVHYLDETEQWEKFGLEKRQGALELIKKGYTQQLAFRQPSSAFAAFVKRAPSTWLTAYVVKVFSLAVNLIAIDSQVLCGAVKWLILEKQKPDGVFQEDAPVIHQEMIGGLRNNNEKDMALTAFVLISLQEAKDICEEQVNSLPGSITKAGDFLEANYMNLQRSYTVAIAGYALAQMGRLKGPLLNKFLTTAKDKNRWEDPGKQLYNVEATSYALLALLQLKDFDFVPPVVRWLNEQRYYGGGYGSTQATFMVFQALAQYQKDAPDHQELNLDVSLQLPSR

Kd: 640 nM
B1: factor H, P08603 19-1231 (natural protein)
chain: EDCNELPPRRNTEILTGSWSDQTYPEGTQAIYKCRPGYRSLGNVIMVCRKGEWVALNPLRKCQKRPCGHPGDTPFGTFTLTGGNVFEYGVKAVYTCNEGYQLLGEINYRECDTDGWTNDIPICEVVKCLPVTAPENGKIVSSAMEPDREYHFGQAVRFVCNSGYKIEGDEEMHCSDDGFWSKEKPKCVEISCKSPDVINGSPISQKIIYKENERFQYKCNMGYEYSERGDAVCTESGWRPLPSCEEKSCDNPYIPNGDYSPLRIKHRTGDEITYQCRNGFYPATRGNTAKCTSTGWIPAPRCTLKPCDYPDIKHGGLYHENMRRPYFPVAVGKYYSYYCDEHFETPSGSYWDHIHCTQDGWSPAVPCLRKCYFPYLENGYNQNYGRKFVQGKSIDVACHPGYALPKAQTTVTCMENGWSPTPRCIRVKTCSKSSIDIENGFISESQYTYALKEKAKYQCKLGYVTADGETSGSITCGKDGWSAQPTCIKSCDIPVFMNARTKNDFTWFKLNDTLDYECHDGYESNTGSTTGSIVCGYNGWSDLPICYERECELPKIDVHLVPDRKKDQYKVGEVLKFSCKPGFTIVGPNSVQCYHFGLSPDLPICKEQVQSCGPPPELLNGNVKEKTKEEYGHSEVVEYYCNPRFLMKGPNKIQCVDGEWTTLPVCIVEESTCGDIPELEHGWAQLSSPPYYYGDSVEFNCSESFTMIGHRSITCIHGVWTQLPQCVAIDKLKKCKSSNLIILEEHLKNKKEFDHNSNIRYRCRGKEGWIHTVCINGRWDPEVNCSMAQIQLCPPPPQIPNSHNMTTTLNYRDGEKVSVLCQENYLIQEGEEITCKDGRWQSIPLCVEKIPCSQPPQIEHGTINSSRSSQESYAHGTKLSYTCEGGFRISEENETTCYMGKWSSPPQCEGLPCKSPPEISHGVVAHMSDSYQYGEEVTYKCFEGFGIDGPAIAKCLGEKWSHPPSCIKTDCLSLPSFENAIPMGEKKDVYKAGEQVTYTCATYYKMDGASNVTCINSRWTGRPTCRDTSCVNPPTVQNAYIVSRQMSKYPSGERVRYQCRSPYEMFGDEEVMCLNGNWTEPPQCKDSTGKCGPPPPIDNGDITSFPLSVYAPASSVEYQCQNLYQLEGNKRITCRNGQWSEPPKCLHPCVISREIMENYNIALRWTAKQKLYSRTGESVEFVCKRGYRLSSRSHTLRTTCWDGKLEYPTCAKR
